The test has as its target RORγ-mCherry (UniProt P51450).
Chain of UniProt P51450 (P51450 whole entry): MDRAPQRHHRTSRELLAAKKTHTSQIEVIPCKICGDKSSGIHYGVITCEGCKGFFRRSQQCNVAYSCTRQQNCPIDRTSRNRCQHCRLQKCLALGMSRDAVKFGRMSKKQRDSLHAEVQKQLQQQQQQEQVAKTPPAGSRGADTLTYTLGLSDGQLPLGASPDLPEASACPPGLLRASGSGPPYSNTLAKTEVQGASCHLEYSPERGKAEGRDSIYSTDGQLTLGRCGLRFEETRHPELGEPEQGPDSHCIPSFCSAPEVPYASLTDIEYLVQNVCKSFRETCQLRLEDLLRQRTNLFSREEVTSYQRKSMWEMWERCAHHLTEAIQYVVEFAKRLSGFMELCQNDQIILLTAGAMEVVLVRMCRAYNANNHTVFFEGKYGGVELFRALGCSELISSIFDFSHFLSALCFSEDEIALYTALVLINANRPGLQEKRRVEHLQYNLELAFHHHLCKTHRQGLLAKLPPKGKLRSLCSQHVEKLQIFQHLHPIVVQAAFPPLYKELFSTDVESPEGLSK

B1: Myc-Prox1 PΔN106 (domain or fragment)
chain: TEPSFQASGLSSTGSEVHQEDICSNSSRDSPPECLSPFGRPTMSQFDVDRLCDEHLRAKRARVENIIRGMSHSPSVALRGNENEREMAPQSVSPRESYRENKRKQKLPQQQQQSFQQLVSARKEQKREERRQLKQQLEDMQKQLRQLQEKFYQVYDSTDSENDEDGDLSEDSMRSEILDARAQDSVGRSDNEMCELDPGQFIDRARALIREQEMAENKPKREGSNKERDHGPNSLQPEGKHLAETLKQELNTAMSQVVDTVVKVFSAKPSRQVPQVFPPLQIPQARFAVNGENHNFHTANQRLQCFGDVIIPNPLDTFGSVQMPSSTDQTEALPLVVRKNSSEQSASGPATGGHHQPLHQSPLSATAGFTTPSFRHPFPLPLMAYPFQSPLGAPSGSFSGKDRASPESLDLTRDTTSLRTKMSSHHLSHHPCSPAHPPSTAEGLSLSLIKSECGDLQDMSDISPYSGSAMQEGLSPNHLKKAKLMFFYTRYPSSNMLKTYFSDVKFNRCITSQLIKWFSNFREFYYIQMEKYARQAINDGVTSTEELSITRDCELYRALNMHYNKANDFEVPERFLEVAQITLREFFNAIIAGKDVDPSWKKAIYKVICKLDSEVPEIFKSPNCLQELLHE
With B1, the nuclear localisation of PΔN106 in COS-1 cells: percent of cells with the mutant principally in the nucleus on co-expression with RORγ (50% when expressed alone) (% of the cells) worked out at 90.

B2: Myc-Prox1 PΔC636 (domain or fragment)
chain: MPDHDSTALLSRQTKRRRVDIGVKRTVGTASAFFAKARATFFSAMNPQGSEQDVEYSVVQHADGEKSNVLRKLLKRANSYEDAMMPFPGATIISQLLKNNMNKNGGTEPSFQASGLSSTGSEVHQEDICSNSSRDSPPECLSPFGRPTMSQFDVDRLCDEHLRAKRARVENIIRGMSHSPSVALRGNENEREMAPQSVSPRESYRENKRKQKLPQQQQQSFQQLVSARKEQKREERRQLKQQLEDMQKQLRQLQEKFYQVYDSTDSENDEDGDLSEDSMRSEILDARAQDSVGRSDNEMCELDPGQFIDRARALIREQEMAENKPKREGSNKERDHGPNSLQPEGKHLAETLKQELNTAMSQVVDTVVKVFSAKPSRQVPQVFPPLQIPQARFAVNGENHNFHTANQRLQCFGDVIIPNPLDTFGSVQMPSSTDQTEALPLVVRKNSSEQSASGPATGGHHQPLHQSPLSATAGFTTPSFRHPFPLPLMAYPFQSPLGAPSGSFSGKDRASPESLDLTRDTTSLRTKMSSHHLSHHPCSPAHPPSTAEGLSLSLIKSECGDLQDMSDISPYSGSAMQEGLSPNHLKKAKLMFFYTRYPSSNMLKTYFSDVKFNRCITSQLIKWFSNFREFYYIQME
The molecule B2 had a nuclear localisation of PΔC636 in COS-1 cells: percent of cells with the mutant predominantly in the nucleus on co-expression with RORγ (6% when expressed alone) (% of the cells) of 80.

These data come from publication PMC3737549.
